As usually defined, the Kd is a measure of binding affinity in units of concentration. Low readings indicate tighter binding, high ones weaker binding.

This is an account of results in article PMC2805019 (ACS chemical biology, 2008).

Series [1] deals with apoptosis inducing factor (AIF) (Homo sapiens, UniProt O95831). Kind of series: ITC. Format: binding.
The target in series [2] is T1, AIF (57 kDa form, AIFΔ1-121) (human, UniProt O95831 122-613). Kind of series: photonic crystal biosensor.
Series [3] addresses T2, MazEF toxin-antitoxin complex (UniProt P0AE72;P0AE70 1-82;1-111). Kind of series: photonic crystal biosensor.
In series [4] the target is T2, MazEF toxin-antitoxin complex. Kind of series: photonic crystal biosensor. This is another data set of the same source.
The target is the same in series [5]. Kind of series: competition.
The target in series [6] is T1, AIF (57 kDa form, AIFΔ1-121). Briefly: competition.

T2 sequence (P0AE72 whole entry, chain 1 of 2): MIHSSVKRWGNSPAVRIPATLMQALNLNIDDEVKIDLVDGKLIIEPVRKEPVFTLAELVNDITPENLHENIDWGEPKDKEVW
T2 sequence (P0AE70 whole entry, chain 2 of 2): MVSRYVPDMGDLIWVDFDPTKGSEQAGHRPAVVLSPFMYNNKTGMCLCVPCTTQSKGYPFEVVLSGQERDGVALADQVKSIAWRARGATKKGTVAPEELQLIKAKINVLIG
T1 sequence (O95831 122-613, stated change not applied): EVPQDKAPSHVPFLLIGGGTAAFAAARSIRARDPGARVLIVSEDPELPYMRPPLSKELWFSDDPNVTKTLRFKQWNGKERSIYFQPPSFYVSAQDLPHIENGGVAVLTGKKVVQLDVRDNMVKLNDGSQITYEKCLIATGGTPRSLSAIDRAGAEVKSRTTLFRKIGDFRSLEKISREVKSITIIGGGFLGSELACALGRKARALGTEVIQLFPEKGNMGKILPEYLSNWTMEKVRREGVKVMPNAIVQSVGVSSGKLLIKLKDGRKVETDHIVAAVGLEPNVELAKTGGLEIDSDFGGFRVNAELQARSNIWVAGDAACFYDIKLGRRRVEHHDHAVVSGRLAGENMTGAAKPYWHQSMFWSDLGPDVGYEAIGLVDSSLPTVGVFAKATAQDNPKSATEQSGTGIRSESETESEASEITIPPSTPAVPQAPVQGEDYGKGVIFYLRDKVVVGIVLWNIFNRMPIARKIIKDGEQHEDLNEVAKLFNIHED
Sequence of apoptosis inducing factor (AIF) (O95831 122-613): as the sequence (O95831 122-613, stated change not applied) above

In series [1], `O=C(O)C1=CC(=C(c2ccc(O)c(C(=O)O)c2)c2ccc(O)c(C(=O)O)c2)C=CC1=O` [ATA, aurin tricarboxylic acid] came in with a dissociation constant (Kd) of 19 ± 5 µM.

B1: randomized 30 bp dsDNA, biotinylated (dsDNA)
DNA 1: CCGGTACGATACGACGATCGATAGTAGGCC
DNA 2: GGCCTACTATCGATCGTCGTATCGTACCGG
For the molecule B1, the binding result in series [2] is reported as “binds”.

B2: alternating GC control DNA, biotinylated (dsDNA)
DNA 1: GCGCGCGCGCGCGCGCGCGCGCGCGCGCGCGCGCGCGCGCGCGCGCGCGC
DNA 2: CGCGCGCGCGCGCGCGCGCGCGCGCGCGCGCGCGCGCGCGCGCGCGCGCG
Take B2: the binding result in series [3] is “no binding”.

B3: MazEF promoter DNA, biotinylated (dsDNA)
DNA 1: GCTCGTATCTACAATGTAGATTGATATATACTGTATCTACATATGATAGC
DNA 2: GCTATCATATGTAGATACAGTATATATCAATCTACATTGTAGATACGAGC
Regarding B3, the binding result in series [4] was “binds”.

B4: MazEF promoter DNA, nonbiotinylated (dsDNA)
DNA 1: B3 DNA 1
DNA 2: B3 DNA 2
In the case of B4, in series [5], the binding result was “binds”.

B5: randomized 30 bp dsDNA, nonbiotinylated (dsDNA)
DNA 1: B1 DNA 1
DNA 2: B1 DNA 2
On to B5, for which, in series [6], the binding result is “binds”.
